The target in test [1] is polypeptide Hep2, subunit of the thermoresistant heptaprenyl diphosphate synthetase of Bacillus stearothermophilus (ATCC 10149) (Bacillus stearothermophilus (ATCC 10149)).
The target of test [2] is polypeptide Hex3, polypeptide of subunit (B) of the hexaprenyl diphosphate synthetase of Micrococcus luteus B-P 26 (Micrococcus luteus B-P 26).
For test [3], the target named is polypeptide GERC3, subunit of the heptaprenyl diphosphate synthetase of Bacillus subtilis (ATCC 6633) (Bacillus subtilis (ATCC 6633)) (UniProt P31114).
In test [4] the target is Hex2, protein encoded by hex2 of Micrococcus luteus B-P 26 (Micrococcus luteus B-P 26).

Turning to “polypeptide Hep1, subunit of the heptaprenyl diphosphate synthetase of Bacillus stearothermophilus (ATCC 10149) (from UniProt P55784) (enzyme)”, in test [1], the Activity (dpm), HepPS activity of proteins mixed in equal amounts amounted to 0 dpm.
Consider “Hex2, protein encoded by hex2 of Micrococcus luteus B-P 26”, for which, in test [2], the Activity (dpm), prenyl diphosphate (HexPP) synthetase activity of mixed crude homogenates stood at 0 dpm.
In the case of “polypeptide GERC1, subunit of the heptaprenyl diphosphate synthetase of Bacillus subtilis (ATCC 6633) (enzyme)”, the values for the Activity (dpm), HepPS activity of proteins mixed in equal amounts in test [3] and in test [1] were 136 dpm and 7920 dpm, respectively.
With “polypeptide Hex1, polypeptide of subunit (A) of the hexaprenyl diphosphate synthetase of Micrococcus luteus B-P 26 (enzyme)”, the figures for the Activity (dpm), prenyl diphosphate (HexPP) synthetase activity of mixed crude homogenates in test [4] and in test [2] were 0 dpm and 2920 dpm, respectively.

The values above are taken from patent US6071733.
